Data set [1] in a line: Fluorescence adsorption study (intrinsic tryptophan fluorescence) of binding to cuvette walls. It counts as physicochemical. Particulars: solution of TGF-β (1 μg/ml) in water, 25° C. An excerpt: We have also developed an analytical method suitable for determining suitable concentrations of TGF-β, especially TGF-β3. When adsorption of a fluorescent molecule (protein) occurs to the cuvette walls the concentration of the molecule in the solution decreases. This change in concentration is monitored by changes (reduction) in the fluorescence intensity. With optimized slits in the excitation and emission monochromators the excitation beam is focused in a small region in the middle of the cuvette and the emission is collected also preferentially from the same region. […] In these conditions the fluorescence intensity is proportional to the concentration of the molecules in the aqueous solution (monitored in the middle of the cuvette). If binding occurs a decrease in the fluorescence intensity is observed. For TGF-β the intrinsic tryptophan fluorescence is used in the adsorption studies. To characterize an adsorption process the percentage from the total TGF-β in the cuvette which bound to the walls in a given time interval, e.g. 25 minutes, is measured. Fluorescence measurements are performed with a Spex Fluorolog® or a Spex Fluoromax® spectrophotometers with a stirred attachment in the cell holder at 25° C. Tryptophan fluorescence is excited at 280 nm and emission monitored at 340 nm. […]

The test system of the next data set is cranial bone defect. The data set can be described thus: Rabbit cranial defect model, bony filling by quantitative radiography. It counts as in vivo. The method, then: (§1) The in vivo performance of the pharmaceutical compositions of the present invention may be tested on horses (wound healing), pigs (oral mucositis inhibition), rabbits e.g. with the rabbit cranial defect model (induction of repairing of bone defects), and femal mice (induction of angiogenesis).
Bone disks removed for creation of the defect served as controls for the extent of bone regeneration. After an eight week healing period the bony filling of the defects was determined by quantitative radiography. The total defect area corresponded to 113320.2 pixels and was taken as 100% for further calculations. Accordingly, complete regeneration corresponded to a value of 11.3×10^4 pixels.

Data set [2] can be described thus: Aggregation by 90°-light scattering. Particulars: 10 mM calcium chloride or 10 mM calcium phosphate, and 20% isopropanol or ethanol; increasing TGF-β3 concentration up to 60 μg/ml. It is filed as physicochemical. As to the method:
Aggregation of TGF-β3 in different aqueous conditions is studied using 90°-lightscattering. Using the same wavelength for excitation and emission, e.g. excitation and emission wavelength is 560 nm, a Spectrofluorimeter is used to detect aggregation events by measuring the 90°-light scatter. In this method a small aliquot of TGF-β3 stock solution is added in the fluorescence cuvette. If aggregation takes place an increase in the 90°-light scatter intensity is observed.
A composition comprising 10 mM calcium chloride or 10 mM calcium phosphate, and 20% isopropanol or ethanol is prepared.

The nature of data set [3]: Chemical stability of lyophilized formulation, by-products by capillary zone electrophoresis. It is filed as physicochemical. To be noted: in the absence of CaCl2. The method, then:
The chemical stability of lyophilized formulation in vials containing TGF-β3, 5.881 mg of CaCl2 and 25 mg of mannitol have been tested. The vials are solubilized to obtain TGF-β3 solutions of 0.1 mg/ml and 0.25 mg/ml. TGF-β3 by-products (related substances) are determined by capillary zone electrophoresis. […] There is no increase in the TGF-β3 by-products after 6 month incubation at 40° C. In comparison, in the absence of CaCl2 the chemical degradation is substantial.

The next data set deals with vascularization. Put plainly: Mouse subcutaneous model (induction of angiogenesis). It is filed as in vivo.
Text: as §1

Regarding TGF-β, the “binding to plastic, quartz and siliconised quartz cuvettes” value in data set [1] was “bind strongly”.
For the substance “TGF-β3: 25 kD homodimeric, disulfide-linked protein composed of two 112 amino acid polypeptides”, in the data set on cranial bone defect, the “bone formation (in words)” value was “strong bone formation”. Besides, in data set [2], the “aggregation (90°-light scatter intensity)” value is given as “No aggregation”. The chemical degradation result in data set [3] is reported as “substantial”. Also, the “vascularization (in words)” value with vascularization is recorded as “strong vascularization”.

Values taken from patent US6649168B2, “Pharmaceutical compositions comprising TGF-beta” (Novartis AG, priority 1999, dated 2003).
